# Test results: the DeepSol protein solubility set
# Assay: soluble on expression in E. coli; label from the status in PepcDB or PDB records
row,Sequence,soluble on expression in E. coli
1,SRRLLNDSTGRIYQRVGKEGEKLKEEPQDLDLVWPPRLNSSAEAPQSLHPSSRGVWNELPPQSGQFSGQYGTRSRTFQSQPHPTTSSNGMVVNKHSEGSHGGELPVVNSSAGSNCCTCNCQSTLQAILQELKTMRKLMQIQAVGTQNRQQPPISLICSQRTAVSRKRNKKKKVPPKTVEPLTVKQKPSGSEMEKKSVVASELSALQAAEHTSPEESRVLGFGIVLESPSSDPEVQLAEGFDVFMPKSQLDSILSNYTRSGSLLFRKLVCAFFDDKTLANSLPNGKRKRGLNDNRKGLDQNIVGAIKVFTEKYCTANHVDKLPGPRDWVQILQDQIKLARRRLKRGSEIADSDERLDGIALPPTVV,not soluble
2,MSLKVLIKTDLVLGAPKTLRDVYIGIDEGQIKVISKEKPEDYDYAEYVIGGKNRVVAPGFVTTHSFLYLYPFRYRVFSGKANAFQLMSTLTPNDIYYFSLMGAYHLLKTGVTTVVTSGPNLDMIARAISEVGLRPVLAVGVDCPDSKEDWEREFTTLYNRWSSKNENRVILRLCSNEYSKEVFELSQQYDFPVLLERFVSLENISGNPINVIGLGGGARKDLDIIKQKGFHLASTPSYEVSQFPLSQYKPSISLDLSPTFDIRHEVSTSITRLILTPEEALNAMTIWGLLQLKYNDRGVLENGKVADLVIFEVKEPPTFPLDYESPYESIVFNLSTPETVLVSGEAILDGGVPLNIGIKHIEKAIERLEDIDKKVTEGHHHHHH,soluble
3,MVDLKRLRQEPEVFHRAIREKGVALDLEALLALDQEVQELKKRLQEVQTERNQVAKRVPKAPPEEKEALIARGRALGEEAKRLEEALREKEAQLEALLLQVPLPPWPGAPVGGEEANREIKRVGSPPEFSFPPLDHVALMEKNGWWEPRISQVSGSRSYALKGDLALYELALLRFAMDFMARRGFLPMTLPSYAREKAFLGTGHFPAYRDQVWAIAETDLYLTGTAEVVLNALHSGEILPYEALPLRYAGYAPAFRSEAGSFGKDVRGLMRVHQFHKVEQYVLTEASLEASDRAFQELLENAEEILRLLELPYRLVEVATGDMGPGKWRQVDVEVYLPSEGRYRETHSCSALLDWQARRANLRYRDPEGRVRYAYTLNNTALATPRILAMLLENHQLQDGRVRVPKALVPYMGKEVLEPCG,soluble
4,MNNASGGTHSKGTATTGGTTTQAAKTNLTTTAAKGRTATPSLDEETRKRLMVEGKCFHCFKPGHISPNYLEKQIKQLKVLEQPVPEEQGVSENN,not soluble
5,GSKKHSVLHLVPVNITSKADSDVTEVMWQPVLRRGRGLEAQGDIVRVWDTGIYLLYSQVLFHDVTFTMGQVVSREGQGRRETLFRCIRSMPSDPDRAYNSCYSAGVFHLHQGDIITVKIPRANAKLSLSPHGTFLGFVKL,soluble
6,MRCKRHTVDFSSSIGVCASCLRERLFTLAVSTAASENDDNDHRHSRISPPPLLFPRSVSPYVAPRKSDAGTGTGAGGRDSVASSNNRFFATPQVVVQSSSSEKVFESDRSFKKKKSGLSRFSSFFRTRSDDYDSRRDSCDASTVFSQPSSATTSRSWFSKVISVRSKKQSTTNTCYIEDLIASESDHHHHNQNRPRQRYCRGMSPAGDSTTNDESVEESPGRLRRTPVMGTPGRKKTATIGIGRSVSGMAFCLSPLVRAKPNCSSNWKAKFPPDFGYSGELKSPAKPHLSTAASFCGNRSKKLVDLGRVDHRR,soluble
7,MKFMQYTEKVMQHFMNPHNVGVIENPDGYGKVGNPSCGDIMEIFIKVDNNIISDVKFRTFGCASAIASSSISTDMIIGKTVEEALKLTNKQVVDELGGLPAVKMHCSVLAEEAIKMAIEDYISKRDGKLEHHHHHH,soluble
8,MKVVGVTSCIAGLAHTPMAAKALEKAGVKLGHDVKIEQQGAMGTIDEITPAEVSAADVVIIAADKVIDGEDRFKGKPVVRVKIGQCVANGEAVLSKVVAAIEARKQKEAN,not soluble
9,MEKIWLDSYEKGVSAEIDITQYNSVSDVFRQSVEKFADQPAFQNMGKTLTYAETGKLATDFASYLQNVLKLPRGERVAIMLPNVLQYPVALFGILQAGLVAVNTNPLYTPRELEHQLKDSGATAIIVLENFANTLELVLPRTQIKHVIVASVGEMFGLLKGSLINFVIRKIKKMVPEYRIRETVSFQTALKEGAKHVFQPVALNREDTALLQYTGGTTGVAKGAVLSHGNICANMLQAKEWIKNQLREGKETVIAALPLYHIFALTVNLMIFANAGSKIILITNPRDMKGFIGELKKQRVNVFIGVNTLFNAMVNRPDFAEVDFSELRLTLGGGMATQKAVAEKWKKITGTPIVEAYGLTEASPGVCCNPLNIESYSGSIGLPVSSTEVELRDANGKEVPVGQPGELWVKGPQVMQGYWNRPEETAKAIDARGFLETGDIAVMDEKGWLKLVDRKKDLVVVSGFNVYPNEIEEVIAHHGKVMEVACIGVPDEKTGEALKVFVVKKDPSLTKEELIAFCRTELTAYKVPKNIEFRDELPKSNVGKILRRELRQSTGK,not soluble
10,MAHHHHHHMGHKNSSNISSAPVPPPFYVLPGVPVPSLKPSNLDFSATSGKPILCAGWIAPHGNRSWSRRNVVYSSEIEIPVPQPCQVRVKIYAAGVNPADAHRTAVLPSSPEVGTSGKSRRASRHPRPPFKFPYVVGIEGAGVVESVGWAAASSGERDGSAGALTSANARDIRVGDRVAFLADLMQESGGTFCQYAVVDSDVLWKLPEVVCAPPPSTGGLVPGRLIDFVEAASLPAAAATAYIALFDKLRIETQRAIFISGASGGVGSAAVQLAHYFGLYVIASCSTPNVRYVQSLGADYVVDYTRADVVEEILTYTDNYGVDYLLECAGAFMAEAHSETVRFGGALCVLTGLLSPRSDIVFRRQLSVHYVCLGMQHQDPLARTQLQPLGELVMQLYIQGAFSVNAEQVPFVQAADALDLVASGHGRGKIVLTNFHTNEEKEERLRRRHVQLYEKAQHQYQVEETQKAAGAAAATAASEAASREAG,not soluble
11,MKLERILPFSKTLIKEHIKQDSIVIDATCGNGNDTLFLAQQVSNGHVFGFDIQDTAIQSTFEKVKAFNNVTLIQDGHENIKKHIDIQFKGQIDAAIFNLGYLPKGDKSIVTRPETTIKAINAIFDYLSVEGIIVLVIYHGHAEGQVERDALLDFLEHFDQEKAHILKYQFMNQVNHAPFICAIEKRLEHHHHHH,not soluble
12,MAHHHHHHMQTLDINNSFAVPFDEDPQDAGVWFFDTNYAQEMFAMHKRVLPKVKVVGWYSSGPTIQPNDMLLHLLVADRFCLNPVYCVVNTDPNNKGVPVRAYTTVQGREGTRSLEFRNIPTHLGAEEAEEIGIEHLLRDLTDSTITTLSTQVQERELSLVHLCKVLQQIEEYLKDVGNAVMPISEDVLEVLQELISLQPEIYARRSSTEMIRHTNDEAIATFLAAIARCIGALHGVIMNRRKLARELQEIKDRRARAAETRLENEKMKIEEAAKEKDTNQA,soluble
13,MKPRNINNSLPLQPLVPDQENKNKKNEEKSVNPVKITMGSGLNYIEQESLGGKYLTHDLSIKIADISEEIIQQAILSAMSIYKFSITDDLMSMAVNELIKLTKIENNVDLNKFTTICTDVLSPRVTRHNKEKNKRHSTLLKNPLFNFHLEHHHHHH,soluble
14,MGSDKIHHHHHHMIPSQHFQSTPTVQFDLLTYMIGSYHYNWHPQIELLWLLQGTVEVNVDGTRHQLHANDLILINANRGHATFALTPECIALRLHILPDFYTNQGIDLSSGAFLLNSVTTPQHRDYQTIRQILAQLYLGLHQQDWPIFDLNALYFQLTNLLHHDFFDTGITMTYPQPKTQSSLNRVIDYINQAYDRPITLNEAAKISHYSPAYLSRIFKAELGLNFYEYLTRCRLQHAIYDLENPTTRVADLALANGFQEVKSFNLMFKKHFGQTPSSYRQHLSHGQRPEYDQFKQPLTPTQTTIVQKQLNHWAQLTSTDQLSACESCMYKLHFQEYQALKQKIAQLKTLLNQ,not soluble
15,MGSDKIHHHHHHMKVKWSRDFSIKNMQLDKQHELIFEITNLANDLALNIQDNNTQHKNDLKQILVKLFQYIKIHFKDEEKFMESIDFPLIEEHKKSHQILVEKTKELLEHSNDIVKMSQELSILTKDWILDHFANEDLWIANFTKKTLHLQEIHYTLEQYIKLKSIKQDLRAEKTYDYICNCSLRIHAVPQTIHQELVSKENTLKCEKCGQILVHLDYFDLNQNFEKFNAIFEDALQNHHFTTQENDMRGGG,not soluble
16,PEHIRQMAQAVEGVTPRALPDLPVACRLSGLEPLTIEKETLFINVGERTNVTGSARFKRLIKEEQYDEALEVARQQVENGAQIIDINMDEGMLDAQACMVRFLNLCASEPEISKVPIMVDSSKWEVIEAGLKCIQGKGIVNSISLKEGKEKFVEQAKLIRRYGAAVIVMAFDEVGQAETRTRKLEICTNAYRILVDEVGFPPEDIIFDPNIFAVATGIDEHNNYAVDFIEAVADIKRDLPHAMISGGVSNVSFSFRGNNYVREAIHAVFLYHCFKNGMDMGIVNAGQLEIYDNVPEKLREAVEDVVLNRRDDATERLLDIAAEYADKGVGKEEDASAL,not soluble
17,MPAKTGQEYMERLKRAKSSVYIHGEKVEDVTVHPAFRNVVRSMAALYDRQYEKPEKMLYRSPTTGQLVGMTFIQPTTIDELIARREATQEWARMSAGMMGRSPDYLNAEVMAMGVANDLFAEDDPMFAENAKNYYEYARENDISLTHTLIHPQMNRAKALHEQNDADVPLHLVERRKDGIIVSGIRLLATQGGITDEILVFPSTVKKSTAGEDPYALAFAIPNNTPGVKFICREAFDYGRSSWDHPLASRFEEGDAIVSFENVFVPWERVFVCGNSSICNRTFRETNAVIHMSHQVVAKNIVKTEFLLGVTLCLIEAIGIGEFQHVKDKGAEIMLVLETMKSHLYRAEHNAKRDRWGTMTPDFAALDAARNWYPRIYPRLSEIIRILGASGLMAIPTEADFHNEEIGEIVSRAMQGATVDGYERVQLFRLAWDLTMSAFGARQTHYEYYFFGDPVRMGMAYFDGYEKEPYKQFVREFLRGAKSVFIPSDNKH,not soluble
18,MRKWETFIIDYMNKSKKTFVKTIDIEHHLKTLLKQEYDDDGGYFKYSSTLKNMVEEEKIQPVKARGHNHQTPPVFNEYRLVKKERRTNPTHIKKLMTDYLLFNMTAFYDEAEFEKWKFYIDRVHAFLTQNSDTKNNILKANERSFELFRNEKFLLDKEGTKFLANLGLTLSDLNCRRTYEPFVEYQPNPSKKPKNILIIENRDTFDSIKELMIDGIDTWSRITFDMVIYGEGDKIQRSFYFLEEYELEDYEVYYFGDLDARGIHICSELIKIDNRVKPFIPFYIELLNRYGHEPSTRTIERKLKQTIIDDSLKLFSSFFEGDYIDELKRYTDIIQNVQIYIPQEGLNLVILRKLGERR,not soluble
19,MGSDKIHHHHHHMKKYYLLSLISASLIGATCIQCTSPKQKSGENTLPQKSELFVSLPDYCPTPDGMAIAPNGDLILACPNFADITQPACLMRITKDGAVSKWLDVPVLEETGWASPMGLAFNEEGDLFISDNQGWSGAEKAKNKGRVLRLKFENDQLKETITVASGMEHPNGIRIRNGKLYVTQSSLSQIKDPSGLLVSGVYCFDMNDRDIAVTNTSADQNLLTTVITKNPEVQYGLDGIVFNEAGDLFVGNFGDGAIHRIKMDAEGKVVSNDVWAQDTTQLRTTDGMCIDDKGNIWVADFSANAVARVDKDGKIQRIAQSPDCDGSDGGLDQPGEPIVWNGQVIVSCFDLVTGPDKVNTKHDKPFTLAKLSLE,not soluble
20,MGSDKIHHHHHHMFKPNYHFFPITGWMNDPNGLIFWKGKYHMFYQYNPRKPEWGNICWGHAVSDDLVHWRHLPVALYPDDETHGVFSGSAVEKDGKMFLVYTYYRDPTHNKGEKETQCVAMSENGLDFVKYDGNPVISKPPEEGTHAFRDPKVNRSNGEWRMVLGSGKDEKIGRVLLYTSDDLFHWKYEGVIFEDETTKEIECPDLVRIGEKDILIYSITSTNSVLFSMGELKEGKLNVEKRGLLDHGTDFYAAQTFFGTDRVVVIGWLQSWLRTGLYPTKREGWNGVMSLPRELYVENNELKVKPVDELLALRKRKVFETAKSGTFLLDVKENSYEIVCEFSGEIELRMGNESEEVVITKSRDELIVDTTRSGVSGGEVRKSTVEDEATNRIRAFLDSCSVEFFFNDSIAFSFRIHPENVYNILSVKSNQVKLEVFELENIWL,not soluble
